Experimental data from patent US20210292396A1.

Tests used:
Assay in all cases: cell-based or functional assay
[1] = biological target: Env of HIV isolate THRO.18 (clade B) (HIV)
[2] = biological target: Env of HIV isolate ZA012.29 (clade C) (HIV)
[3] = biological target: Env of HIV isolate BB201.B42 (clade A) (HIV)
[4] = biological target: Env of HIV isolate X2278.C2.B6 (clade B) (HIV)
[5] = biological target: Env of HIV isolate BJOX010000.06.2 (clade AE) (HIV)
[6] = biological target: HIV Env of isolate 6322.v4.c1 (HIV)
[7] = biological target: Env of HIV isolate TH976.17 (clade AE) (HIV)
[8] = biological target: HIV Env of isolate 16936-2.21 (HIV)
[9] = biological target: HIV Env of isolate 231965.c01 (HIV)
[10] = biological target: Env of HIV isolate 246-F3.C10.2 (clade AC) (HIV)
[11] = biological target: Env of HIV isolate CNE30 (clade C in Table 7) (HIV)
[12] = biological target: HIV Env of isolate CAP256.206.C9 (HIV)
[13] = biological target: HIV Env of isolate 001428-2.42 (HIV)
[14] = biological target: HIV Env of isolate CE703010217.B6 (HIV)
[15] = biological target: Env of HIV isolate T255-34 (clade AG) (HIV)
[16] = biological target: Env of HIV isolate C2101.c1 (clade AE) (HIV)
[17] = biological target: Env of HIV isolate CAP210.E8 (clade C) (HIV)
[18] = biological target: Env of HIV isolate TH966.8 (clade AE) (HIV)
[19] = biological target: HIV Env of isolate 96ZM651.02 (HIV)
[20] = biological target: Env of HIV isolate BS208.B1 (clade A) (HIV)
[21] = biological target: Env of HIV isolate T251-18 (clade AG) (HIV)
[22] = biological target: HIV Env of isolate NKU3006.ec1 (HIV)
[23] = biological target: Env of HIV isolate 6838.v1.c35 (clade C) (HIV)
[24] = biological target: Env of HIV isolate QH209.14M.A2 (clade A) (HIV)
[25] = biological target: HIV Env of isolate 6785.v5.c14 (HIV)
[26] = biological target: Env of HIV isolate Bal.01 (clade B) (HIV)
[27] = biological target: Env of HIV isolate SF162.LS (clade B) (HIV)
[28] = biological target: Env of HIV isolate CNE59 (clade AE) (HIV)
[29] = biological target: Env of HIV isolate 3637.v5.c3 (clade C) (HIV)
[30] = biological target: Env of HIV isolate BaL.26 (clade B) (HIV)
[31] = biological target: Env of HIV isolate T278-50 (clade AG) (HIV)
[32] = biological target: Env of HIV isolate 0815.v3.c3 (clade ACD) (HIV)
[33] = biological target: Env of SIVmac251.30.SG3
[34] = biological target: Env of HIV isolate MI369.A5 (clade A) (HIV)
[35] = biological target: HIV Env of isolate X1254.c3 (HIV)
[36] = biological target: Env of HIV isolate TRO.11 (clade B) (HIV)
[37] = biological target: HIV Env of isolate X1632.S2.B10 (HIV)
[38] = biological target: HIV Env of isolate 247-23 (HIV)
[39] = biological target: Env of HIV isolate MS208.A1 (clade A) (HIV)
[40] = biological target: Env of HIV isolate ZM176.66 (clade C) (HIV)
[41] = biological target: HIV Env of isolate 25925-2.22 (HIV)
[42] = biological target: HIV Env of isolate 3873.v1.c24 (HIV)
[43] = biological target: HIV Env of isolate X2131.C1.B5 (HIV)
[44] = biological target: Env of HIV isolate NKU3006.ec1 (clade D) (HIV)
[45] = biological target: HIV Env of isolate 3637.v5.c3 (HIV)
[46] = biological target: HIV Env of isolate 288.38 (HIV)
[47] = biological target: Env of HIV isolate TRJO.58 (clade B) (HIV)
[48] = biological target: HIV Env of isolate 00836-2.5 (HIV)
[49] = biological target: HIV Env of isolate Ce1176.A3 (HIV)

B1: ePGT121.18 (ePGT121.18.H1 VH and ePGT121.17.L1 VL) (antibody, V domains shown)
VH: QMQLQESGPGLVKPGETLSLTCSVSGASISSSYWSWLRETPGKGLEWIGYTHHSGDTNYAPSLKSRVHLGLHPSKNQVSLSLTSVTAADTAVYYCARTLHGRRIYGVVAFNEYYTYFYWPTWGKGTQVTVSS
VL: SDISVAPGETVRITCGGESIGSRAVQWYQHRPGQAPRLIIYNNQDRPPGIPERFSGSPDIDFGTTATLTISNVEAGDEATYYCHIWDSRRPTNWELGPGTTLTVL
IC50, pseudovirus neutralization [1]: > 50 µg/mL | IC50, pseudovirus neutralization [2]: 0.002 µg/mL | IC50, pseudovirus neutralization [3]: 0.002 µg/mL | IC50, pseudovirus neutralization [4]: 0.001 µg/mL | IC50, pseudovirus neutralization [5]: > 50 µg/mL | IC80, pseudovirus neutralization (M1) [6]: > 50 µg/mL | IC80, pseudovirus neutralization (M2) [6]: > 50 µg/mL | IC50, pseudovirus neutralization [7]: > 50 µg/mL | IC80, pseudovirus neutralization (M1) [8]: 0.003 µg/mL | IC80, pseudovirus neutralization (M2) [8]: 0.005 µg/mL | IC80, pseudovirus neutralization (M1) [9]: > 50 µg/mL | IC80, pseudovirus neutralization (M2) [9]: > 50 µg/mL | IC50, pseudovirus neutralization [10]: 4.8 µg/mL | IC50, pseudovirus neutralization [11]: 0.005 µg/mL | IC80, pseudovirus neutralization (M1) [12]: 0.003 µg/mL | IC80, pseudovirus neutralization (M2) [12]: 0.004 µg/mL | IC80, pseudovirus neutralization (M1) [13]: 0.003 µg/mL | IC80, pseudovirus neutralization (M2) [13]: 0.004 µg/mL | IC80, pseudovirus neutralization (M1) [14]: 0.008 µg/mL | IC80, pseudovirus neutralization (M2) [14]: 0.008 µg/mL | IC50, pseudovirus neutralization [15]: 0.016 µg/mL | IC50, pseudovirus neutralization [16]: > 50 µg/mL | IC50, pseudovirus neutralization [17]: 0.02 µg/mL | IC50, pseudovirus neutralization [18]: > 50 µg/mL | IC80, pseudovirus neutralization (M1) [19]: 0.002 µg/mL | IC80, pseudovirus neutralization (M2) [19]: 0.003 µg/mL | IC50, pseudovirus neutralization [20]: > 50 µg/mL | IC50, pseudovirus neutralization [21]: 0.019 µg/mL | IC80, pseudovirus neutralization (M1) [22]: > 50 µg/mL | IC80, pseudovirus neutralization (M2) [22]: > 50 µg/mL | IC50, pseudovirus neutralization [23]: 0.386 µg/mL | IC50, pseudovirus neutralization [24]: > 50 µg/mL | IC80, pseudovirus neutralization (M1) [25]: 0.006 µg/mL | IC80, pseudovirus neutralization (M2) [25]: 0.006 µg/mL | IC50, pseudovirus neutralization [26]: 0.002 µg/mL | IC50, pseudovirus neutralization [27]: 0.002 µg/mL | IC50, pseudovirus neutralization [28]: > 50 µg/mL | IC50, pseudovirus neutralization [29]: > 50 µg/mL | IC50, pseudovirus neutralization [30]: 0.002 µg/mL | IC50, pseudovirus neutralization [31]: 1.17 µg/mL | IC50, pseudovirus neutralization [32]: 0.001 µg/mL | IC80, pseudovirus neutralization (M1) [33]: > 50 µg/mL | IC80, pseudovirus neutralization (M2) [33]: > 50 µg/mL | IC50, pseudovirus neutralization [34]: 0.002 µg/mL | IC80, pseudovirus neutralization (M1) [35]: 0.005 µg/mL | IC80, pseudovirus neutralization (M2) [35]: 0.006 µg/mL | IC50, pseudovirus neutralization [36]: 0.002 µg/mL | IC80, pseudovirus neutralization (M1) [37]: > 50 µg/mL | IC80, pseudovirus neutralization (M2) [37]: > 50 µg/mL | IC80, pseudovirus neutralization (M1) [38]: > 50 µg/mL | IC80, pseudovirus neutralization (M2) [38]: > 50 µg/mL | IC50, pseudovirus neutralization [39]: > 50 µg/mL | IC50, pseudovirus neutralization [40]: 0.017 µg/mL | IC80, pseudovirus neutralization (M1) [41]: 0.008 µg/mL | IC80, pseudovirus neutralization (M2) [41]: 0.01 µg/mL | IC80, pseudovirus neutralization (M1) [42]: 0.006 µg/mL | IC80, pseudovirus neutralization (M2) [42]: 0.011 µg/mL | IC80, pseudovirus neutralization (M1) [43]: 0.002 µg/mL | IC80, pseudovirus neutralization (M2) [43]: 0.003 µg/mL | IC50, pseudovirus neutralization [44]: > 50 µg/mL | IC80, pseudovirus neutralization (M1) [45]: > 50 µg/mL | IC80, pseudovirus neutralization (M2) [45]: > 50 µg/mL | IC80, pseudovirus neutralization (M1) [46]: 0.002 µg/mL | IC80, pseudovirus neutralization (M2) [46]: 0.002 µg/mL | IC50, pseudovirus neutralization [47]: 0.003 µg/mL | IC80, pseudovirus neutralization (M1) [48]: > 50 µg/mL | IC80, pseudovirus neutralization (M2) [48]: > 50 µg/mL | IC80, pseudovirus neutralization (M1) [49]: 0.006 µg/mL | IC80, pseudovirus neutralization (M2) [49]: 0.006 µg/mL

B2: ePGT121.18.17 (ePGT121.18.H17 VH and ePGT121.17.L1 VL) (antibody, V domains shown)
VH: QMQLQESGPGLVKPGETLSLTCSVSGASISSSYWSWLRETPGKGLEWIGYTHHSGDTNYAPSLKSRVTIGLDPSKNQVSLSLTSVTAADTAVYYCARTLHGRRIYGVVAFNEYYTYFYWPTWGKGTQVTVSS
VL: SDISVAPGETVRITCGGESIGSRAVQWYQHRPGQAPRLIIYNNQDRPPGIPERFSGSPDIDFGTTATLTISNVEAGDEATYYCHIWDSRRPTNWELGPGTTLTVL
IC50, pseudovirus neutralization [1]: > 50 µg/mL | IC50, pseudovirus neutralization [2]: 0.005 µg/mL | IC50, pseudovirus neutralization [3]: 0.003 µg/mL | IC50, pseudovirus neutralization [4]: 0.003 µg/mL | IC50, pseudovirus neutralization [5]: > 50 µg/mL | IC80, pseudovirus neutralization [6]: > 50 µg/mL | IC50, pseudovirus neutralization [7]: > 50 µg/mL | IC80, pseudovirus neutralization [8]: 0.011 µg/mL | IC80, pseudovirus neutralization [9]: > 50 µg/mL | IC50, pseudovirus neutralization [10]: 18.5 µg/mL | IC50, pseudovirus neutralization [11]: 0.018 µg/mL | IC80, pseudovirus neutralization [12]: 0.009 µg/mL | IC80, pseudovirus neutralization [13]: 0.008 µg/mL | IC80, pseudovirus neutralization [14]: 0.016 µg/mL | IC50, pseudovirus neutralization [15]: 0.032 µg/mL | IC50, pseudovirus neutralization [16]: > 50 µg/mL | IC50, pseudovirus neutralization [17]: 0.124 µg/mL | IC50, pseudovirus neutralization [18]: > 50 µg/mL | IC80, pseudovirus neutralization [19]: 0.006 µg/mL | IC50, pseudovirus neutralization [20]: > 50 µg/mL | IC50, pseudovirus neutralization [21]: 0.041 µg/mL | IC80, pseudovirus neutralization [22]: > 50 µg/mL | IC50, pseudovirus neutralization [23]: 0.576 µg/mL | IC50, pseudovirus neutralization [24]: > 50 µg/mL | IC80, pseudovirus neutralization [25]: 0.015 µg/mL | IC50, pseudovirus neutralization [26]: 0.003 µg/mL | IC50, pseudovirus neutralization [27]: 0.003 µg/mL | IC50, pseudovirus neutralization [28]: > 50 µg/mL | IC50, pseudovirus neutralization [29]: > 50 µg/mL | IC50, pseudovirus neutralization [30]: 0.004 µg/mL | IC50, pseudovirus neutralization [31]: 1.2 µg/mL | IC50, pseudovirus neutralization [32]: 0.005 µg/mL | IC80, pseudovirus neutralization [33]: > 50 µg/mL | IC50, pseudovirus neutralization [34]: 0.008 µg/mL | IC80, pseudovirus neutralization [35]: 0.015 µg/mL | IC50, pseudovirus neutralization [36]: 0.005 µg/mL | IC80, pseudovirus neutralization [37]: > 50 µg/mL | IC80, pseudovirus neutralization [38]: > 50 µg/mL | IC50, pseudovirus neutralization [39]: > 50 µg/mL | IC50, pseudovirus neutralization [40]: 0.122 µg/mL | IC80, pseudovirus neutralization [41]: 0.021 µg/mL | IC80, pseudovirus neutralization [42]: 0.02 µg/mL | IC80, pseudovirus neutralization [43]: 0.007 µg/mL | IC50, pseudovirus neutralization [44]: > 50 µg/mL | IC80, pseudovirus neutralization [45]: > 50 µg/mL | IC80, pseudovirus neutralization [46]: 0.003 µg/mL | IC50, pseudovirus neutralization [47]: 0.023 µg/mL | IC80, pseudovirus neutralization [48]: > 50 µg/mL | IC80, pseudovirus neutralization [49]: 0.017 µg/mL

B3: ePGT121.15.H2.L1 (antibody, V domains shown)
VH: QMQLQESGPGLVKPGETLSLTCSVSGASISSSYWSWLRETPGKGLEWIGYTHHSGDTNYAPSLKSRVHLGLHPSKNQVSLSLTSVTAADTAVYYCARTLHGRRIYGVVAFNEWFTYFYWEVWGKGTQVTVSS
VL: SDISVAPGETVRISCGGESIGSRAVQWYQHRAGQAPKLIIYNNQDRPPGIPERFSGSPDIDFGTTATLTITNVEAGDEATYYCHIWDSRRPTNWVFGGGTTLTVL
neutralization (Table 6 value) [9]: 0.285
